Experimental data: US20170087188A1, “WNT INDUCED MOTILITY AND ENHANCED ENGRAFTMENT OF CELLS” (OTTAWA HOSPITAL RESEARCH INSTITUTE, priority 2014, published 2017)
Values joined by “and” are separate entries in the source; they are usually repeats but may differ in a detail not shown here. Identical values can stand only once. “Also recorded” adds a separate entry of the source.

Experiments:
C2C12 cells [1] = assay: Morphological quantification of triangular polarized C2C12 cells; format: cell-based
Excerpt: Cell migration is typically accompanied by cytoskeletal polarization leading to a distinctive triangular cell shape.
Fzd7-YFP was expressed in myogenic cells and induced polarization by 130% (FIG. 1A and FIG. 9A). […] The majority of Fzd7-YFP localized to small intracellular vesicles associated with the tubulin cytoskeleton in C2C12 cells (FIG. 1B). By contrast, no such localization could be observed for YFP alone (FIG. 9B).
For myoblast culture, satellite cells were FACS purified as described (Bentzinger et al., 2013c) and plated on Collagen-coated dishes (BD Biosciences) in Ham's F10 medium supplemented with 20% FBS and 5 ng/mL of basic FGF (Millipore). C2C12 cells and human myoblasts were cultured as previously described (von Maltzahn et al., 2012). For in vitro morphology quantifications, Wnt7a was used at a concentration of 50 ng/mL.

C2C12 cells [2] = assay: Scratch migration assay, C2C12 cells; format: cell-based; conditions: Mitomycin-C treated, 24 h, Wnt 100 ng/mL, vs Veh. or empty vector
Method: Cellular polarization is indicative of increased motility (de Forges et al., 2012). Scratch assays were used to test whether Wnt7a and Fzd7 polarization affect cell motility. To exclude effects on the localization of cells arising from altered rates of proliferation, cells were treated with Mitomycin-C.
(§1) Following plasmid transfection or application of Wnts (R&D Systems), the cells were treated with Mitomycin-C for 2 h (50 μg/mL). Subsequently, the monolayer of cells was scraped in a straight line. The plates were then extensively washed with culture medium and incubated for 24 h before analysis. Analysis was performed using DAPI staining after matching the reference points and enumeration of DAPI-stained nuclei in the scar was performed. Unless otherwise indicated, Wnt7a and Wnt3a were used at a concentration of 100 ng/mL in scratch assays. Monodansylcadaverine (MDC, 30432, Sigma) was used in scratch assays at a concentration of 50 μm.

primary myoblasts = assay: Proliferation of primary myoblasts over five days; format: cell-based; conditions: 3 h exposure; various concentrations; over 5 days
Method: The proliferation of primary myoblasts following a 3 h exposure to various concentrations of Wnt7a was analyzed to control for the effect being due to changes in the cell cycle status of the transplanted cells.

[3] = tested on: mdx extensor digitorum longus (EDL) muscles; assay: Muscle force measurement of mdx EDL muscles after satellite cell transplantation; format: in vivo, mouse; conditions: 3,000 satellite cells treated ex vivo, compared to Veh.
Excerpt: Under normal conditions, a portion of transplanted satellite cells will differentiate and fuse to muscle myofibers. In mdx mice, this process can be tracked by staining for restored dystrophin expression in muscle fibers. […] Similar to the stimulatory effect of Wnt7a on myogenic cell migration in vitro, clusters of dystrophin-expressing myofibers in muscles that were transplanted with Wnt7a-treated cells were highly dispersed and on average located maximally 3.7 mm apart. By contrast, transplantation of untreated cells gave rise to clusters of dystrophin-expressing myofibers that were on maximally 2.2 mm apart on average (FIGS. 6F and 6G).
Extensor digitorum longus (EDL) muscles were isolated three weeks following transplantation and attached to an electrode and a force sensor (Aurora Scientific), and incubated at 25° C. in buffered physiological saline (Krebs-Ringer) supplemented with glucose and oxygen. Twitch force was determined following a single electrical stimulus, while maximal force was generated by electrical stimulation at 100 Hz for 500 ms. Thereafter, muscle length and weight were measured and specific muscle force was calculated ((maximal force×optimal fiber length×muscle density)/muscle mass).

mdx mice [4] = assay: Transplantation of Wnt-treated mouse primary myoblasts into mdx mice; format: in vivo; conditions: 100,000 mouse primary myoblasts
Method: In a clinical setting, freshly isolated satellite cells are often not readily available. Therefore, the effect of 3 h Wnt7a loading on cultured primary mouse myoblasts that were subsequently transplanted into injured muscles of immunosuppressed mdx mice (FIG. S5 A) was examined. After transplantation of 100,000 cells, the number of dystrophin-expressing myofibers was increased by 72% in muscles that were injected with Wnt7a treated myoblasts (FIG. 13B). […] In addition, the mean maximal cluster distance (dispersion) increased from 1.5 mm for Veh., to 2.0 mm for Wnt7a (FIG. 13D).
(§2) Transplantation of zsGreen-expressing satellite cells or myoblasts into mdx mice was performed as previously described (Bentzinger et al., 2013c). Before transplantation the cells were treated for 3 h with Wnt7a, Wnt5a, or Wnt3a (R&D Systems) at a concentration of 50 ng/mL for freshly isolated satellite cells or with 100 ng/mL for cultured cells. Myoblasts expressing tdTomato were transplanted into uninjured muscles of C57BL/6 mice that were implanted with an osmotic pump (Alzet) delivering FK506 (Sigma) at 2.5 mg/kg/day 3 days prior to the transplantations. In some experiments, the injection site was marked with blue fluorescent microspheres (2 μm, Life Technologies) that were added at a concentration of 1:100 (vol/vol) to the cell suspension. 10 μl of the cell-microsphere suspension was injected into the TA of each mouse using a Hamilton syringe.
Muscles frozen in liquid nitrogen were cut into 12 μm cross-sections. Cross-sections and cells were either fixed with ethanol (100%) or 2% PFA for 5 min, permeabilized with 0.1% Triton/0.1 M glycine/PBS for 10 min, blocked with 5% horse serum in PBS for several hours, and incubated with specific primary antibody in blocking buffer overnight at 4° C. Samples were subsequently washed with PBS and stained with appropriate fluorescently labeled secondary antibodies for 1 h at room temperature. After washing with PBS, samples were mounted with Permafluor (Fisher). Antibodies were as follows: chicken anti-GFP (Abcam, ab13970), mouse anti-Pax7 (DSHB), mouse anti-Dystrophin (7A10, DSHB), mouse anti-Rac1 (05-389, Millipore), mouse anti-Tubulin (Sigma, T9026), rabbit anti-Dvl2 (3224, Cell Signaling), rabbit anti-zsGreen (Clontech, 632474), rabbit anti-Laminin (Sigma, L9393), rabbit anti-HA (Millipore, 07-221).

human primary myoblasts = assay: Scratch migration assay, human primary myoblasts; format: cell-based
Method: The translational relevance of Wnt7a treatment was examined in human primary myoblasts.
as §1

mdx mice [5] = assay: Transplantation of Wnt7a-treated human primary myoblasts into mdx mice; format: in vivo, mouse
Method: The effectiveness of Wnt7a on human myoblasts, in vivo, was tested using the same experimental paradigm that we previously used for mouse myoblasts (FIG. 7C). 100,000 human myoblasts were treated ex vivo with Wnt7a for 3 h, and transplanted into immunosuppressed mdx mice. […] (FIG. 7D). […] Moreover, the mean maximal distance between dystrophin-expressing myofiber clusters increased from 1.8 mm under the Veh. condition to 3.0 mm for Wnt7a treatment (FIG. 7F).
as §2

B1: Wnt7a: non-canonical Wnt polypeptide (R&D Systems) used to treat or load myogenic cells (protein, UniProt O00755 32-349, looked up)
Protein Wnt-7a: LGASIICNKIPGLAPRQRAICQSRPDAIIVIGEGSQMGLDECQFQFRNGRWNCSALGERTVFGKELKVGSREAAFTYAIIAAGVAHAITAACTQGNLSDCGCDKEKQGQYHRDEGWKWGGCSADIRYGIGFAKVFVDAREIKQNARTLMNLHNNEAGRKILEENMKLECKCHGVSGSCTTKTCWTTLPQFRELGYVLKDKYNEAVHVEPVRASRNKRPTFLKIKKPLSYRKPMDTDLVYIEKSPNYCEEDPVTGSVGTQGRACNKTAPQASGCDLMCCGRGYNTHQYARVWQCNCKFHWCCYVKCNTCSERTEMYTCK
increase in the abundance of triangular polarized cells (C2C12 cells [1]; C2C12 myoblasts, vs vehicle treated cells expressing YFP, Wnt7a 50 ng/mL): 111%
increase in cell polarization (C2C12 cells [1]; Fzd7-YFP expressing C2C12 cells treated with Wnt7a): 167%
increase in cell migration (C2C12 cells [2]): 443%
rate of proliferation of primary myoblasts (primary myoblasts): No change in the rate of proliferation
increase in maximal specific force generation [3]: 18%
increase in twitch tension [3]: 30%
increase in number of dystrophin-expressing myofibers (mdx mice [4]; 3 h loading (100 ng/mL), immunosuppressed mdx mice): 72%
hypertrophy of dystrophin-expressing myofibers (mdx mice [4]; 3 h loading, mdx mice): 87%
mean maximal cluster distance (dispersion) (mdx mice [4]; 3 h loading, mdx mice): 2.0 mm
human myoblast migration (human primary myoblasts): significantly increases cell migration; also recorded: significantly increased human myoblast migration
increase in the number of dystrophin-expressing myofibers (mdx mice [5]; 100,000 human myoblasts treated ex vivo 3 h, immunosuppressed mdx mice, compared to Veh.): 226% and > 200%
mean maximal distance between dystrophin-expressing myofiber clusters (mdx mice [5]; human myoblasts treated ex vivo 3 h, mdx mice): 3.0 mm
increase in fiber feret (mdx mice [5]; myofibers fused to Wnt7a-treated human myoblasts, mdx mice): 29%
